Assay results as given in the nanobody polyreactivity screen of Harvey et al. (2022).

Assay: yeast display, Sf9 membrane polyspecificity reagent, FACS + sequencing; frameworks hold sequencing errors
Method in brief: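 Polyreactivity labels are assigned by the sorting gate from which each nanobody was recovered. The gates were low and high (top ~1%), set on anti-HA fluorescence for expression and streptavidin fluorescence for reagent binding. Before sorting, galactose-induced (36–48 hours) yeast display cells were stained for 1 hour at 4 °C with 10% biotinylated, detergent-solubilized Sf9 membrane reagent.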

Row | Sequence | polyreactivity (PSR sort gate)
1 | QVQLVESGGGLVQAGGSLRLSCAASGSIFSSYAMGWYRQAPGKERELVAAISSGDSTYYADSVKGRFTISRDNAKNTVYLQMNSLKPEDTAVYYCAAPWYAWGQGTQVTVSS | low polyreactivity
2 | QVQLVESGGGLVQAGGSLRLSCAASGSTFAEYVMGWYRQAPGKERELVAAISSGTSTYYADSVKGRFTISRDNAKNTVYLQMNSLKPEDTAVYYCNDDLYHTWYKPEYDYWGQGTQVTVSS | low polyreactivity
3 | QVQLVESGGGLVKAGGSLRLSCAASGRTLRSYDMGWYRQAPGKEREVVAAITRTGGDTYYADSVKGRFTISRDNAKNTVYLQMNRLKPDDTAVYYCAAQRYRGYDYWGQGTQVTVSS | high polyreactivity
4 | QVQLVESAGGLVQAGGSLRLICAASGSIFDLYAMGWYRQAPGTERELVAASTWSGGSTYYADSVKGRFTISRDNAKNTVYLQMNSLKPEDTAVYYCAAAYVGTQDLVIDYDYWGQGTQVTVSS | low polyreactivity
5 | QVQLVETGGGLVQAGGSLRLSCAASGCIITYYAMGWYRPAPGKERELVAAITASGSRTYYADSVKGRFTISRDNAKNTVYLQMNSLKPEDTAVYDCASDNWQWYPSTWYDYWGQGTQVTVSS | high polyreactivity
6 | QVQLVESGGGLVQAGGSLRLSCAASGRTFRINAMGWYRQAPGKEREMVAAIRSRAGSTYYADSVKGRFTISRDNAKNTVYLQMYSLKPEDTAVYYCAAKFPFDVDYWGQGTQVTVSS | high polyreactivity
7 | QVQLVESGGGLVQAGCSLRLSCAASGSTFRKYAMGWYRQAPGKEREFVAAITWSTGTTYYADSVKGRFTISRDNAKNTVYLQMNSLKPEDTAVYYFAADSQPPHELYESIEHESWGQGTQVTVSS | low polyreactivity
8 | QVQLVESGGGLVQAGGSLRLSCAASGSTSVPYAMGWYRQAPGKERELVAAITIGGSTNYADSVKGRFTISRDNAKNTVYLQMNSLKPEDTAVYYCNAVLTQYWKLVRYYGVDYWGQGTQVTVSS | low polyreactivity
9 | QVQLVESGGGLVQAGGSLRLSCAASGSIFLINAMGWYRPAPGKERELVAAITWSGGRTYYADSVKGRFTISRDNAKNTVYLQMNSLKPEDTAVYYCATRKRRSRPPTYDYWGQGTQVTVSS | high polyreactivity
10 | QVQLVESGGGLVQAGGSLRLSCAASGSIFGDYDMGWYRQAPGKERELVAAITSGGSTDYADSVKGRFTISRDNAKNTVYLQMNRLKPEDTAVYYCAAEDKCGYFLFPFWLELDYWGQGTQVTVSS | low polyreactivity
11 | QVQLVESGGGLVQAGGSLRLSCAASGSIFYWYAIGWYRQAPGKETELVAAISSGGSTNYADSVKGRFTISRDNAKNTVYLQMNSLKPEDTAVYYCNADIRSFYWEYYTGLDSWGQGTQVTVSS | low polyreactivity
12 | QVQLVESGGGLVQAGGSLRLSCAASGIIFVYNAMGWYRQAPGKERELVAGISFIGDSTYYADSVKGRFTISRDNAKNTVYLQMNSLKPEDTAVYYCAADYYLPYWFFVGYDYWGQGTQVTVSS | low polyreactivity
13 | QVQLVESGGGLVQAGGSLRLSCAASGSTFGYYAMGWYRHAHGKERELVAAITGSVDSTYYADSVKGRFTISRDNAKNTVYLQMNSLKPEDTAVYYCAADTYSTYWGQGTQVTVSS | low polyreactivity
14 | QVQLVETGGGLVQAGGSLRLSCAASGITFVYYAMGWYRQAPGKERELVPSISSADNTNYADSVKGRFTISRDNAKNTVYLQMNSLKPEDTAVYYCAADFCWHLRHDSTGGYWGQGTQVTVSS | low polyreactivity
15 | QVQLVESGGGLVQAGGSLRLSCAASGFISYTYMGWYRQAPGKERELVAGITGSGGSTYYADSVKGRFTISRDNAKNTVYLQMNSLKPEDTAVYYCAAERPRRSPDGLNYWGQGTQVTVSS | high polyreactivity
16 | QVQLVESGGGLVQAGGSLRLSCAASGFTFQFYAMGWSRPAPGKERELVAAITWSGGSTYYADSVKGRFTISRDNAKNTVYLQMNSLKPEDTAVYYCAKDRRSYLSYIYDYWGQGTQVNVSS | high polyreactivity
17 | QVQLVESGGGVVQAGGSLRLSCAGSGRTFGPYAMGWYRQAPGKERELVAAIRYIDDSTFYADSVKGRFTISRDKAKNTVYLQMNSLKPEDTAVYYCAAQRRVVGRHGLSLIRYDYWGQGTQVTVTS | low polyreactivity
18 | QVQLQESGGGLEQAGGSLRLSCAASGYISDIGTMGWYRQAPGKEREFVATIVVGSTTNYADSVKGRFTISRDNAKNTVYLQPQSGRYRGVLLRAWLLAVGKFTYWGQGTQETVSS | low polyreactivity
19 | QVQLVESGGGLVQAGGSLRLSCAASGSIFVFNAMGWYRQAPGKERELVAAITSGGRTYYADSVKGRFTISRDNAKNTVYLQMNSLKPEDTAVYYCARRYRARGSMYYWGQGTQVTVSS | high polyreactivity
20 | QVQLVESGGGLVQAGGSLRLSCAASGSIFGLYAMGWYRQAPGKERELVAAINWNGGDTYYADSVKGRFTISRDNAKNTVYLQMNSLKPEDTAVYYCAAELYRYGIRRRHYDYWGQGTLVTVSS | low polyreactivity
21 | QVQLVESGGGLVQAGGSLRLSCAASGSIFTYYAMGWYRQAPGKERELVAAISLDGGSTYYADSVKGRFTISRDNAKNTVYLQMNSLKPEDTAVYYCAADYRFIPYTYLYDYWGQGTQVTVSS | low polyreactivity
22 | QVQLVESGGGLVQAGGSLRLSCAASGSIFQRYAMGWYRQAPGKEREFVAAISGRGGSTYYADSVKGRFTISRDNAKNTVYLQMNSLKPEDTAVYYCAADSSRFYGRPRYYYWGQGTQVTVSS | high polyreactivity

Row | Sequence | polyreactivity (PSR sort gate)
23 | QVQLVESGGGLVQAGGSLSLSSSASGRTFKGNAMGWYIQAPGKERELVAVITGSGGSTYYADSVKGRFTISRDNAKNTVYLQMNSLKPEDTAVYYCNKKLQRRSWYDYWGQGTQVTVSS | low polyreactivity
24 | QVQLVESGGGLVQAGGSLRLSCAASGITFVYYAMGWYRQAPGKERELVAAISVSGGSTYYADSVKGRFTISRDNAKNTVYLQMNSLKPEDTAVYYCAADGYSGIGVREGYWGQGTQVTVSS | high polyreactivity
25 | QVQLEESGGGLVQAGGSLRISCAASVRILSWYAIGWYRQAPGKERELVAAISVRGSTYYADSVKGRFTISRDNAKNTVYLQMNSLKPDDTAVYYSNRVWLQASTTIVVSSRRLYYWGLGTQVTVSS | high polyreactivity
26 | QGQLVESGGGLVQAGGSLRLSCAASGFIFVVYAMGWYRQAPGKERELVAAITFSGGSTYYADSVKGRFTISRDNAKNTVYLQMISLKPEVTAVYYCAAAEHDREFDSWGHGTQVTVSS | low polyreactivity
27 | QGQRVESGGGLVQAGGSLRISCAASGRTVGRYVMGWYRQEPGKERELVARIRGSTTSTYYADSVKGRFTISRDNAKNTVYLQMNSLKAEDTAVYYCAASYSPFASSYSYDYWGQGTQVTVSS | high polyreactivity
28 | QVQLVESGGGLVQAGGSLRLICAASGSTFNIKAMGWYRQAPGKERELVAAISSRGGSTYYADSVKGRFTISRDNAKNTVYLQMNSLKPEDTAVYYCALAAGIPQRRYYYWGQGTQVTVSS | high polyreactivity
29 | QVQLVESGGGLVQAGGSLRLSCAASGFIFVRNAMGWYRQAPGKEREFVAAITRSGGSTYYADSVKGRFTISRDNAKNTVYLQMNCLKPEDTAVYYCAVLYHSRDRYTYRDEDYWGQGTQVTVSS | low polyreactivity
30 | QVQLVESGGGLVQAGGSLRLSCAASGRIFYQYAMGWYRQAPGKERELVAAIRYRDDGTYYADSVKGRFTISRDNAKNTVYLQMNSLQPEDTAVYYCAAKQWGRYGYWGQGTQVTVSS | high polyreactivity
31 | QVQLVESGGGLVQAGGSLRLSCAASGHTFRFYTMGWSRQAPGKEREFVAAIRRRTGSTYYADSVKGRFTISRDNAKNTVYLQMNSLKPEDTAVYYCNAVGDARYNYWGQGTQVTVSS | high polyreactivity
32 | QVQLVESGGGLVQAGGSLRLSCAASGSTFYYNAMGWYRQAPGKEREFVAGITSSGAGTYYADSVKGRFTISRDNAKNTVYLQMNSLKPEDTAVYYCAAVYRWEGRTYRYGYWGQGTQVTVSS | high polyreactivity
33 | HVQLVESGGGLVQAGASLRLSCAASGSTFSTYGMGCSRQAPGKVRELVADISDSTGSTYYADSVKGRFTISRDNAKYTVYLQMNSLKPEDNAVYYCAADSGEPSWGYDYWGQGTQVTVSS | low polyreactivity
34 | QVQLVESGGGLVQAGGSLRLSCAASGRIFDYNTLGWYRQAPGKERELVAAISASGTRTYYADSVKGRFTISRDNAKNTVYLQMNSLKPEDTAVYYCAAVYSYIASYLRYDYWGQGTQVTVSS | high polyreactivity
35 | QVQLVESGGGLVQAGGSLRLSCAASGRTFGSYAMGWYRQAPGKERELVAAISSSGGRTYYADSVKGRFTISRDNAKTTVYLQMNSLKPEDTAVYSCNARWRFLYDYWGQGTQVTVSS | high polyreactivity
36 | QVQLVESGGGLVQAGGSLRLSCAASGFTFRVYAMGWYRQAPGKERELVAAITKRGGSTYYADSVKGRFTISRDNAKNTVYLQMNSLKPEDTAVYYCATENTPHYASHGYWGQGTQVTVSS | high polyreactivity
37 | QVQLVESGGGLVQAGGSLRLSCAASGRIFGRYAMGWYRQAPGKERELVAAISSGSSTNYADSLKGRFTISRDNAKNTVYLQMNSLKPEDTAVYYCAVVLYRHWWYDYWGQGTQVTVSS | high polyreactivity
38 | QVQLVESGGGLVQAGGSLRLSCAASGSTFYYYAMGWYRQAPGKERELVAAITNVTSTYYADSVKGRFTISRDNEKNTVYLMMNSLKPEDTAVYYCAAPDHCSEVTYDYWGQGTQVCVSS | low polyreactivity
39 | QVQLVESGGGLVQAGGSLRLSCAASGRTFWFYGMGWYREAAGKEREFVARISGSGGSTYYADSVKGRFTISRDNAKNTVYLQMNSLKPEDTAVYYCAKDNRYPYPSGLDYWGQGTQVTVSS | high polyreactivity
40 | QDHLVESGEGLVQAGGSLRLSCAASGFVFAYYTMGWYRTAPGKERELVAAISRGGGRTYYADSVKGRFTISRDNAKNTVYLQMNSLKPEDTAVYYCAARNGPSIKFAVTGMDYWGQGTQVTVSS | high polyreactivity
41 | QVQLVESGGGLVQAGGSLRLSCAASGITFASYVMGWYRQAPGKERELVAAISSSGGSTYYADSVKGRFTISRDNAKNTVYLQMNSLKPEDTAVYYCKARLYYSWRSTYDYWGQGTQVTVSS | high polyreactivity
42 | QVQLVESGGGLVQAGGSLRLSCAASGFTFGYNEMGWYRQAQGKERELVAGIRSGDDTNYADSVKGRFTISRDNAKNTVYLQMNSLKPEDTAVYYCPRDPQFYLHTVPDGAYNYWGQGTQVTVSS | low polyreactivity
43 | QVQLVESGGGLVQAGGSLRLSCAASGSTLEPNAMGWYRQAPGKERELVAAITIGGSTYYADSVKGRFTISRDNAKNTVYLQMNSLKPEDTAVYYCAAKSTVQRRRHTNYDYWGQGTQVTVSS | high polyreactivity
